B1: cr491 (nucleic acid)
guide: GTTTAAGAGCTAAGCTGGAAACAGCATAGCAAGTTTAAATAAGGATATTCCGTTATCAAGTTGAAAAACTGGCACCGAGTCGGTGCT
modifications: listed as DNA, chemistry not fully specified
B2: cr814 (nucleic acid)
guide: GTTTAAGAGCTAAGCTGGAAACAGCATAGCAAGTTTAAATAAGGCTAGTCCGTTATCAACTTGAAAAAGTGGGTCCGAGTCGGACCT
modifications: listed as DNA, chemistry not fully specified
B3: cr427 (nucleic acid)
guide: GTTTAAGAGCTAAGCTGGAAACAGCATAGCAAGTTTAAATAAGGCTAGTCCGTTATAAACTTGAAAAAGTGGCACCGAATCGGTGCT
modifications: listed as DNA, chemistry not fully specified
B4: cr842 (nucleic acid)
guide: GTTTAAGAGCTAAGCTGGAAACAGCATAGCAAGCTTAAATAAGGCTAGTCCGTTATCAGCTTGAAAAAGCGGCACCGAGTCGGTGCT
modifications: listed as DNA, chemistry not fully specified
B5: cr254 (nucleic acid)
guide: GTTTAAGAGCTAAGCTGGAAACAGCATAGCAAGTTTAAATAAGGCTAGTCCGTTATCAACTTGAAAAAGTGGCACACAGTGTGTGCT
modifications: listed as DNA, chemistry not fully specified
B6: cr430 (nucleic acid)
guide: GTTTAAGAGCTAAGCTGGAAACAGCATAGCAAGTTTAAATAAGACTAGTTCGTTATCAAATTGAAAAATTGGCACAGAGTCTGTGCT
modifications: listed as DNA, chemistry not fully specified
B7: cr134 (nucleic acid)
guide: GTTTAAGAGCTAAGCTGGAAACAGCATAGCAAGTTTAAATAAGGCTAGTCCGTTATTAACTTGAACAAGTGGCACCGAGTCGGTGCT
modifications: listed as DNA, chemistry not fully specified
B8: cr957 (nucleic acid)
guide: GTTTAAGAGCTAAGCTGGAAACAGCATAGCAAGTTTAAATAAGGGTACTCCGTTATCAACTTGAAAAAGTGCCACCGAGTCGGTGGT
modifications: listed as DNA, chemistry not fully specified
B9: cr837 (nucleic acid)
guide: GTTTAAGAGCTAAGCTGGAAACAGCATAGCAAGTTTAAATAAGGCTAGTCCGTTATCAACTTGAAAAAGTGGCACCCAGTCGGTGCT
modifications: listed as DNA, chemistry not fully specified
B10: cr098 (nucleic acid)
guide: GTTTACGTGCTAAGCTGGAAACAGCATAGCAAGTTTAAATAAGGCTAGTCCGTTATCAACTTGAAAAAGTGGCACCGAGTCGGTGCT
modifications: listed as DNA, chemistry not fully specified
B11: cr330 (nucleic acid)
guide: GTTTAAGAGCTAAGCTGGAAACAGCATAGCAAGTTTAAATAAGGATATTCCGTTATCAACTTGAAAAAGTGCCACCGAGTCGGTGGT
modifications: listed as DNA, chemistry not fully specified
B12: cr651 (nucleic acid)
guide: GTTTAAGAGCTAAGCTGGAAACAGCATAGCAAGTTTAAATAAGGCTAGTCCGTTTGCAACTTGAAAAAGTAGCACCGAGTCGGTGCT
modifications: listed as DNA, chemistry not fully specified
B13: cr846 (nucleic acid)
guide: GTTTAAGAGCTAAGCTGGAAACAGCATGGCAAGTTTAAATAAGGCTAGTCCGTTATCAACTTAAAAAAGTGGCACCGGGTCGGTGCT
modifications: listed as DNA, chemistry not fully specified
B14: cr223 (nucleic acid)
guide: GTTTAAGAGCTAAGCTGGAAACAGCATAGCAAGTTTAAATAAGGGTACTCCGTTATCAACTTGAAAAAGTGGCACCGAGTCGGTGCT
modifications: listed as DNA, chemistry not fully specified
B15: cr500 (nucleic acid)
guide: GTTTAAGAGCTAAGCTGGAAACAGCATAGCAAGTTTAAATAAGGCTAGTCCGTTATCAACTTGAAAAAGTGGCACCGAGGCGGTGCT
modifications: listed as DNA, chemistry not fully specified
B16: cr533 (nucleic acid)
guide: GTTTAAGAGCTAAGCTGGAAACAGCATAGCAAGTTTAAATAAGGCTAGTCCGTTATCAGCTTGAAAAAGCGGCGGCGAGTCGCCGCT
modifications: listed as DNA, chemistry not fully specified
B17: cr342 (nucleic acid)
guide: GTTTAAGAGCTAAGCTGGAAACAGCATAGCAAGTTTAAATAAGGCTAGTCCGTTATTAACTTGATAAAGTGGCACCGAGTCGGTGCT
modifications: listed as DNA, chemistry not fully specified
B18: cr940 (nucleic acid)
guide: GTTTAAGAGCTAAGCTGGAAACAGCATAGCAAGCTTAAATAAGGCTAGTCCGTTATCAACGTGAAAACGTGGCACCGAGTCGGTGCT
modifications: listed as DNA, chemistry not fully specified
B19: cr976 (nucleic acid)
guide: GTTTAAGAGCTAAGCTGGAAACAGCATAGCAAGTTTAAATAAGGGTACTCCGTTATCAACTTGAGAAAGTGGCACCGAGTCGGTGCT
modifications: listed as DNA, chemistry not fully specified
B20: cr959 (nucleic acid)
guide: GTTTAAGAGCTAAGCTGGAAACAGCATAGCAAGTTTAAATAAGGCTAGTCCGTTATCAATTCGAAATACTGGCACCGAGTCGGTGCT
modifications: listed as DNA, chemistry not fully specified
B21: cr531 (nucleic acid)
guide: GTTTAAGAGCTAAGCTGGTAACAGCATAGCAAGTTTAAATAAGGCTAGTCCGTTATCAACTTGAAAAAGTGGCACCGAGTCGGTGCT
modifications: listed as DNA, chemistry not fully specified
B22: cr989 (nucleic acid)
guide: GTTTAAGAGCTAAGCTGGAAACAGCATAGCAAGTTTAAATAAGGCTAGTCCGTTATCAACTTGAAAAAATGGCACCGAGTCGGTGCT
modifications: listed as DNA, chemistry not fully specified
B23: cr599 (nucleic acid)
guide: GTTTAAGAGCTAAGCTGGAAACAGCATAGCAAGTTTAAATAAGGCTAGCCCGTTATCAACGTGAAAAAGTGGCACCGAGTCGGTGCT
modifications: listed as DNA, chemistry not fully specified
B24: cr072 (nucleic acid)
guide: GTCTAAGTGCTAAGCTGGAAACAGCATAGCAAGTTTAAATAAGGCTAGTCCGTTATCAACTTGAAAAAGTGGCACCGAGTCGGTGCT
modifications: listed as DNA, chemistry not fully specified
B25: cr150 (nucleic acid)
guide: GTTTAAGAGCTAAGCTGGAAACAGCATAGCAAGTTTAAATAAGGCTAGTCCGTTATCAACTTGAAAAAGTGGCAGCGAGTCGGTGCT
modifications: listed as DNA, chemistry not fully specified
B26: cr724 (nucleic acid)
guide: GTTTAAGAGCTAAGCTGGAAACAGCATAGCAAGTTTAAATAAGGCTAGTCCGTTATCGACTTGAAAAAGTGGCACCGAGTCGGTGCT
modifications: listed as DNA, chemistry not fully specified
B27: cr548 (nucleic acid)
guide: GTTTAAGAGCTAAGCTGGAAACAGCATAGCAAGTTTAAATAAGGCTAGTCCGTTATCAACTTGAAAAAGTGGCAACGAGTCGGTGCT
modifications: listed as DNA, chemistry not fully specified
B28: cr166 (nucleic acid)
guide: GTTTAAGAGCTAAGCTGGAAACAGCATAGCAAGCTTAAATAAGGCTAGTCCGTTATCAACTTGAAAAAGTGGTACCGAGTCGGTACT
modifications: listed as DNA, chemistry not fully specified
B29: cr265 (nucleic acid)
guide: GTTTAAGAGCTAAGCTGGAAACAGCATAGCAAGTTTAAATAAGGTTAGTCCGTTATCAACTTGAAAAAGTGGCACCGAGTCGGTGCT
modifications: listed as DNA, chemistry not fully specified
B30: cr511 (nucleic acid)
guide: GTTTAAGAGCTAAGCTGGAAACAGCATTGCCAGTTTAAATAAGGCTAGTCCGTTATCAACTTGAAAAAGTGGCACCGCGTCGGTGCT
modifications: listed as DNA, chemistry not fully specified

tested on: K562 CRISPRi cells; assay: Constant region variant library pooled growth screen, K562; type: cell-based, human; details: sgRNA constant region variants; activity relative to the original, un-modified constant region cr995
How it was run: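 Cells were selected with puromycin for 2 days and then kept in RPMI-1640 spinner cultures, with duplicates handled separately. Targeting sequences comprised 3 sgRNAs per essential gene for 10 genes plus six non-targeting controls. Activities were normalized against pairing with the unmodified scaffold.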

Row | Molecule | Mean relative activity
1 | B1 | 0.5775
2 | B2 | 1.048
3 | B3 | 0.5383
4 | B4 | 0.5544
5 | B5 | 0.5503
6 | B6 | 0.5328
7 | B7 | 0.5692
8 | B8 | 0.5576
9 | B9 | 0.5543
10 | B10 | 0.534
11 | B11 | 0.5762
12 | B12 | 0.5637
13 | B13 | 0.5528
14 | B14 | 0.5667
15 | B15 | 0.5743
16 | B16 | 0.5558
17 | B17 | 0.5422
18 | B18 | 0.5399
19 | B19 | 0.5594
20 | B20 | 0.5251
21 | B21 | 1.048
22 | B22 | 0.5623

same assay, conditions: sgRNA constant region variants; relative to the original, un-modified constant region cr995; CRISPRi

Row | Molecule | Mean relative activity
23 | B23 | 0.5112
24 | B24 | 0.5236
25 | B25 | 0.523
26 | B26 | 0.5177
27 | B27 | 0.513
28 | B28 | 0.5245
29 | B29 | 0.5157
30 | B30 | 0.5247

Reference: patent US20220259593A1, “CONTROL OF MAMMALIAN GENE DOSAGE USING CRISPR” (The Regents of the University of California, priority 2019, published 2022)
